This note sets out measurements from patent publication US20260022144A1, “ANALGESIC POLYPEPTIDE” (Shanghai Puyou Biomedical Co., Ltd., priority 2022, published 2026).

For experiment [1], the system named is VZV-induced pain model in rats. The experiment is described as follows: VZV-induced pain model in rats, mechanical allodynia (von Frey) test. Particulars: 10 mg polypeptide/kg i.v., single administration, tested 0.5 h after administration. It counts as in vivo, rat. The protocol: A summary of the method for inducing pain model in rats by means of subcutaneous VZV inoculation is provided hereinafter. Briefly, male Sprague Dawley (SD) rats were deeply anesthetized by intraperitoneal injection of a Zoletil R: 50 (30 mg/kg)/xylazine (6 mg/kg) anesthetic at an injection volume of 6 mL/kg, and then the virus inoculation was performed by subcutaneous injection at the footpad area. The infection dose was 22800 TCID50 per animal, and the infection volume was 150 μL for all rats.
Administration was performed on alternate days. Briefly, the test articles were administered by subcutaneous injection at the footpad area on Day 1 and Day 3, respectively. As for Group 2, the administration of SEQ ID NO: 29 was initiated from the first concentration. Namely, the first concentration (10 μg/mL) was administered on Day 1, and the second concentration (20 μg/mL) was administered on Day 3. Pain was measured once after each administration.
Mechanical allodynia tests (also called “von Frey tests”) for pain measurements were performed on the rats one hour after administration of the test articles on Day 1 and Day 3, respectively. In the behavioral test for rats, mechanical allodynia is expressed as the 50% paw withdrawal threshold (PWT), which is calculated according to the following formula:
[formula] • wherein • Xf=final test fiber value used in the test • k=tabular value for the pattern of positive/negative responses (Chaplan et al. 1994, page 62) • δ=mean difference.
Briefly, the rats were placed individually in plexiglass boxes with a grid at the bottom to ensure that the rats' feet could be tested. The rats were acclimated to the environment for 15 minutes prior to the test. After the acclimation was completed, pain (mechanical allodynia) was tested on the center of the sole of the left hind foot of the rats using test fibers. The test fibers included 8 test strengths: 3.61 (0.4 g), 3.84 (0.6 g), 4.08 (lg), 4.31 (2 g), 4.56 (4 g), 4.74 (6 g), 4.93 (8 g) and 5.18 (15 g). During the test, the test fibers were pressed vertically against the skin and forces were applied to bend the fibers for 6-8 seconds with a 5-second interval between each test. During the test, a pain response was recorded if the animals quickly withdrew their feet. The pain response was also recorded if the animal withdrew their feet as the test fibers left the animal's skin. The pain response was not recorded if the animal moved or ambulated, and the test should be repeated. The test was started with 4.31 (2 g). If the animal had pain response, the next test should be performed with a test fiber with a lower strength: if the animal has no pain response, the next test should be performed with a test fiber with a higher strength. The maximum strength of the tested fibers was 5.18 (15 g). The test results were recorded in a table, wherein the presence of pain response was recorded as “x”, and the absence of pain response was recorded as “0”.
The rats were randomly divided into 2 groups, with 8 rats in the placebo group (Group 1, administered with vehicle (normal saline)) and 8 rats in the treatment group (Group 2, administered with 30 mg SEQ ID NO: 29/kg). Briefly, the test articles were administered to the rats on a single day by intravenous injection.
Mechanical allodynia tests were performed on the rats 0.5 h after administration of the test articles according to the method as recited in Example 1, respectively.
The rats were randomly divided into 3 groups, with 8 rats in the placebo group (Group 1, administered with vehicle (normal saline)) and 16 rats in the treatment groups (Groups 2 and 3, 8 rats/group, administered with various polypeptides). Briefly, vehicle (normal saline) was administered to the rats from Group 1 and various polypeptides were administered to the rats from Group 2 (SEQ ID: 29, SEQ ID: 57 and SEQ ID: 49; 10 mg polypeptide/kg) and 3 (SEQ ID: 75 and SEQ ID: 28: 10 mg polypeptide/kg) on a single day by intravenous injection.

Another experiment has as its system SNL pain model in rats. In words: SNL (spinal nerve ligation) pain model in rats, mechanical allodynia test. It counts as in vivo, rat. Particulars: SD rats, i.v. single administration (SEQ ID NO: 29 30 and 60 mg/kg; SEQ ID NO: 90 and 93 60 mg/kg), 1 h after administration. The protocol: A summary of the method for inducing pain model in rats by means of spinal nerve ligation is provided hereinafter. Briefly, male SD rats were anesthetized with Zoletil R 50+xylazine hydrochloride (20 mg/kg+8 mg/kg, intraperitoneal injection). The surgical areas on the waist regions of the animals were shaved, and the skin was disinfected with iodophor and 70% v/v ethanol for three times. The left spinal nerves L5 and L6 of the animals were isolated, tightly ligated with 6-0 silk suture, and the wounds were sutured.
On the 11th day post operation, the animals were acclimated to the experimental environment, 15 minutes/day, for 3 consecutive days.
Briefly, after SNL modeling, 24 animals were randomly divided into 3 groups (Groups 2, 3 and 4, N=8/group). Group 1 (a Sham group, for which the 10 animals received essentially the same operation procedure as other groups but their left spinal nerves L5 and L6 were neither isolated nor ligated) was used as the control group. The test articles were administrated to the animals according to the protocol shown in Table 5, and mechanical allodynia tests were respectively performed 1h after administration according to the method as recited in Example 1.
Briefly, after SNL modeling, 30 animals were randomly divided into 3 groups (Group 1, N=6/group; Groups 2 and 3, N=12/group). Various polypeptides of the present disclosure were administered to the animals from Groups 2 and 3, and the animals were subjected to mechanical allodynia tests 1 h after administration according to the method as recited in Example 1.

B1: SEQ ID NO: 28: polypeptide of SEQ ID NO: 28 for treating or preventing peripheral neuropathic pain (protein)
chain: SEKKQPVDLGLLEEDDEFEEFPAEDWAGLDEDEDAHVWEDNWDDDNVEDDFSNQLRATVLLMILVCETPYGCYVLHQKGRMCSAFLCC
For the molecule B1, in experiment [1], the “analgetic effect (50% PWT)” value is recorded as “apparent analgetic effect”.

B2: SEQ ID NO: 93: artificial polypeptide of formula (VI) or (I) X-Y (protein)
chain: SEKKQPVDLGLLEEDDEFEEFPAEDWAGLDEDESAHVWEDNWDDDNVTSDFSNQLRATVLLMILVAETPYGAYVLHQKGRMASAFLAA
In the case of B2, the “analgetic effect (50% PWT)” value in the experiment on SNL pain model in rats is listed as “certain analgetic effect”.

B3: SEQ ID NO: 75: artificial polypeptide of formula (I) X-Y (protein)
chain: SEKKQPVDLGLLEEDDEFEEFPAEDWAGLDEDEDAHVWEDNWDDDNVEDDFSNQLRATVLLMILVAETPYGAYV
Consider B3, for which, in experiment [1], the “analgetic effect (50% PWT)” value was “apparent analgetic effect”.

B4: SEQ ID NO: 49: artificial polypeptide of formula (III) X-Y (protein)
chain: STKKQPVDLGLLETDSEFTEFPATSWAGLSESESAHVWTSNWDSSNVTSDFSNQLRATVLLMILVCETPYGCYVLHQKGRMCSAFLCC
Turning to B4, the “analgetic effect (50% PWT)” value in experiment [1] is recorded as “apparent analgetic effect”.

B5: SEQ ID NO: 90: artificial polypeptide of formula (VI) X-Y (protein)
chain: STKKQPVDLGLLETDSEFTEFPATSWAGLSESESAHVWTSNWDSSNVTSDFSNQLRATVLLMILVAETPYGAYVLHQKGRMASAFLAA
In the case of B5, the “analgetic effect (50% PWT)” value in the experiment on SNL pain model in rats was “certain analgetic effect”.

B6: SEQ ID NO: 57: artificial polypeptide of formula (I) X-Y; also listed for peripheral neuropathic pain (protein)
chain: SEKKQPVDLGLLEEDDEFEEFPAEDWAGLDEDEDAHVWEDNWDDDNVTSDFSNQLRATVLLMI
For B6, the “analgetic effect (50% PWT)” value in experiment [1] is recorded as “apparent analgetic effect”.
